Reference: publication PMC13324855
Where “and” joins values, the source holds several entries; their conditions need not be identical. Identical values can stand only once.

Legend:
[1] = target: SARS-CoV-1 receptor-binding domain (RBD), wild type (SARS-CoV-1); test: flow cytometry on cells
[2] = target: SARS-CoV-2 spike receptor-binding domain, Wuhan-Hu-1 (WT RBD) (SARS-CoV-2) (UniProt P0DTC2); test: flow cytometry on cells

angiotensin converting enzyme 2 (ACE2) peptidase domain, ACE2D (domain or fragment)
Kd [1]: 1.51 nM and 1.72 nM and 1.9 nM | EC25 [2]: 2 nM
